Reference: article PMC9377591

What follows are substances tested against N2 domain of α-catenin, tagged with V5 (Drosophila) (UniProt P35220) (assay: co-IP; FLAG-tagged Jub constructs co-expressed with a V5-tagged partner in Drosophila S2 cells; lysis and washes in RIPA buffer (140 mM NaCl, 10 mM Tris-HCl pH 8.0, 1 mM EDTA, 1.0% Triton X-100, 0.1% SDS, 0.1% sodium deoxycholate); precipitated with anti-V5 agarose beads, blotted with anti-FLAG; band intensity normalised to full length Jub).
Sequence of UniProt P35220 (P35220 whole entry, the tested form may be a part): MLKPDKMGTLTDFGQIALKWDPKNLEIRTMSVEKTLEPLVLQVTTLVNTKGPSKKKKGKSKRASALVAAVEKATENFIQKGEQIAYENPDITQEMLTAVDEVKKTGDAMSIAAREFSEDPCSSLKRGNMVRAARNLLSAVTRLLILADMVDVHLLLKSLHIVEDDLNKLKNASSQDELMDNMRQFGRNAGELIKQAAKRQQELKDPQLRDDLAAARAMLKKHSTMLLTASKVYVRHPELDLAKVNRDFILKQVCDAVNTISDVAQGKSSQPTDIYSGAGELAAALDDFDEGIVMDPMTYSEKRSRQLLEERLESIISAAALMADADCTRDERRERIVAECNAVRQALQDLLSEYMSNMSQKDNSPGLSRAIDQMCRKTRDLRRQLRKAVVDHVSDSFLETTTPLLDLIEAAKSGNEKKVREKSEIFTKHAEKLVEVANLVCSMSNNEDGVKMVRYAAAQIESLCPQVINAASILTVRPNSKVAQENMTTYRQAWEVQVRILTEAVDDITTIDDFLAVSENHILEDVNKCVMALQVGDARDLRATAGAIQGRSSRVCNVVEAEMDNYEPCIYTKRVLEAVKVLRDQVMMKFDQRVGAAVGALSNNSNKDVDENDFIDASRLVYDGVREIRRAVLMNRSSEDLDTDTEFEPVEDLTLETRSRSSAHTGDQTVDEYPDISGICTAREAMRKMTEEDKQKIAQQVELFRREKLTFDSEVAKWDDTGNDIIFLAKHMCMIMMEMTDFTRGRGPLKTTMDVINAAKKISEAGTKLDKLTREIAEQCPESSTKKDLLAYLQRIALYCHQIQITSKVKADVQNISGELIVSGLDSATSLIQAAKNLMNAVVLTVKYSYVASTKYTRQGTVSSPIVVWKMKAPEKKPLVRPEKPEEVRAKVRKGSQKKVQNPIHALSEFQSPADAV

Substance | co-immunoprecipitation relative to full length Jub (% of full length)
Jub preLIM+LIM13 (1-570 and 631-718), FLAG-tagged (from UniProt Q9VY77 1-570; Q9VY77 631-718) (domain or fragment) | 50
Jub preLIM+LIM23 (1-505, 571-718), FLAG-tagged (from UniProt Q9VY77 1-505; Q9VY77 571-718) (domain or fragment) | 780

Now from value to substance:

co-immunoprecipitation relative to full length Jub (% of full length) | Substance
170 | Jub preLIM+LIM12 (1-623 and 693-718), FLAG-tagged (from UniProt Q9VY77 1-623; Q9VY77 693-718) (domain or fragment)
24 | Jub-preLIM (1-505), FLAG-tagged (from UniProt Q9VY77 1-505) (domain or fragment)

What follows are substances tested against V5-tagged Steppke (Step-V5-His) (Drosophila) in the same assay as above.

Substance | co-precipitation relative to full length Jub (% of full length)
Jub preLIM+LIM1 (1-559 and 693-718), FLAG-tagged (from UniProt Q9VY77 1-559; Q9VY77 693-718) (domain or fragment) | 30
Jub preLIM+LIM13 (1-570 and 631-718), FLAG-tagged (from UniProt Q9VY77 1-570; Q9VY77 631-718) (domain or fragment) | > 64
Jub preLIM+LIM23 (1-505, 571-718), FLAG-tagged (from UniProt Q9VY77 1-505; Q9VY77 571-718) (domain or fragment) | > 64
Jub preLIM+LIM3 (1-505 and 631-718), FLAG-tagged (from UniProt Q9VY77 1-505; Q9VY77 631-718) (domain or fragment) | 30

Next, values leading:

co-precipitation relative to full length Jub (% of full length) | Substance
> 64 | Jub preLIM+LIM2 (1-505, 571-623, and 693-718), FLAG-tagged (from UniProt Q9VY77 1-505; Q9VY77 571-623; Q9VY77 693-718) (domain or fragment)
> 64 | Jub preLIM+LIM12 (1-623 and 693-718), FLAG-tagged (from UniProt Q9VY77 1-623; Q9VY77 693-718) (domain or fragment)
